7 molecules from patent US20230355734A1 (VIRGINIA COMMONWEALTH UNIVERSITY, published 2023) can be followed below.

First the molecules themselves.
B1: FhbB3 of strain 35404, E45A or D58A site-directed mutant (receptor)
chain: FKMNTAQNAHYEAFISGLERGAKDNPMLAQVVKAGLDLANDGAAALNYKIVDKKPGTDIAKGTKAAELRKRFIPKKIKT
notes: also called FhbB335404 mutant; not shown: N-terminal hexa-histidine tag from vector pET46-Ek LIC
B2: FhbB-ch4 tetravalent chimeric (FhbB135405-FhbB2SP50-FhbB333521-FhbB335404, mutated) (other)
chain: TFKMNTAQKAHYEKFINALENALKTRHIPAGAVIDMLAEINTEALALDYQIVDKKPGTSIAQGTKAAALRKRFIPKKIKAFKMNTAQKAHYEAFIKVLEKAAERNPIDAQVVVEALGAVNIDALAKNLNYQVIDKKPGTDIATGTKAAELRKRFVPKKIKAFKMNTAQKAHYEAFISGLENAVKDNPMTAQNVKEGLDLANVGAAALNFKIVDKKAGTEIAKGTKAAELRKRFVPKKKAFKMNTAQNAHYEAFISGLERGAKDNPMLAQVVKAGLDLANDGAAALNYKIVDKKPGTDIAKGTKAAELRKRFIPKKIK
notes: purified on nickel; also called Fhb-ch4; not shown: N-terminal hexa-histidine tag from vector pET46-Ek LIC
B3: FhbB3 of strain 33521, E45A or D58A site-directed mutant (receptor)
chain: FKMNTAQKAHYEAFISGLENAVKDNPMTAQNVKEGLDLANVGAAALNFKIVDKKAGTEIAKGTKAAELRKRFVPKKKA
notes: also called FhbB333521 mutant; not shown: N-terminal hexa-histidine tag from vector pET46-Ek LIC
B4: FhbB2 of strain SP50, E45A or D58A site-directed mutant (receptor)
chain: FKMNTAQKAHYEAFIKVLEKAAERNPIDAQVVVEALGAVNIDALAKNLNYQVIDKKPGTDIATGTKAAELRKRFVPKKIKA
notes: also called FhbB2SP50 mutant; not shown: N-terminal hexa-histidine tag from vector pET46-Ek LIC
B5: FhbB1 of strain 35405, E45A site-directed mutant (receptor)
chain: TFKMNTAQKAHYEKFINALENALKTRHIPAGAVIDMLAEINTEALALDYQIVDKKPGTSIAQGTKAAALRKRFIPKKIKA
notes: also called FhbB135405 mutant; not shown: N-terminal hexa-histidine tag from vector pET46-Ek LIC
B6: FhbB3SP64E45A/D58A (receptor)
chain: FKMNTAQKAHYEAFIADLERAAKDNPMPAHIVKAGLDAANAIAATLNFKIVDKKAGTEIAKGTKAAELRKRFVPKKK
notes: also called FhbBSP64E45A/D58A; FhbB3SP64 mutant; not shown: N-terminal hexa-histidine tag from vector pET46-Ek LIC
B7: FhbB-ch5 pentavalent chimeric (FhbB135405-FhbB2SP50-FhbB333521-FhbB335404-FhbB3SP64, mutated) (other)
chain: TFKMNTAQKAHYEKFINALENALKTRHIPAGAVIDMLAEINTEALALDYQIVDKKPGTSIAQGTKAAALRKRFIPKKIKAFKMNTAQKAHYEAFIKVLEKAAERNPIDAQVVVEALGAVNIDALAKNLNYQVIDKKPGTDIATGTKAAELRKRFVPKKIKAFKMNTAQKAHYEAFISGLENAVKDNPMTAQNVKEGLDLANVGAAALNFKIVDKKAGTEIAKGTKAAELRKRFVPKKKAFKMNTAQNAHYEAFISGLERGAKDNPMLAQVVKAGLDLANDGAAALNYKIVDKKPGTDIAKGTKAAELRKRFIPKKIKTFKMNTAQKAHYEAFIADLERAAKDNPMPAHIVKAGLDAANAIAATLNFKIVDKKAGTEIAKGTKAAELRKRFVPKKK
notes: purified on nickel; not shown: N-terminal hexa-histidine tag from vector pET46-Ek LIC

For one assay, the target named is T1, human Factor H (human, UniProt P08603 19-1231).
T1 construct: Purified human FH bought from CompTech; added in solution at 10 ug/mL in the ELISA and 40 ug/mL in the cleavage assay; also called FH; human FH
T1 sequence (P08603 19-1231 limits assumed): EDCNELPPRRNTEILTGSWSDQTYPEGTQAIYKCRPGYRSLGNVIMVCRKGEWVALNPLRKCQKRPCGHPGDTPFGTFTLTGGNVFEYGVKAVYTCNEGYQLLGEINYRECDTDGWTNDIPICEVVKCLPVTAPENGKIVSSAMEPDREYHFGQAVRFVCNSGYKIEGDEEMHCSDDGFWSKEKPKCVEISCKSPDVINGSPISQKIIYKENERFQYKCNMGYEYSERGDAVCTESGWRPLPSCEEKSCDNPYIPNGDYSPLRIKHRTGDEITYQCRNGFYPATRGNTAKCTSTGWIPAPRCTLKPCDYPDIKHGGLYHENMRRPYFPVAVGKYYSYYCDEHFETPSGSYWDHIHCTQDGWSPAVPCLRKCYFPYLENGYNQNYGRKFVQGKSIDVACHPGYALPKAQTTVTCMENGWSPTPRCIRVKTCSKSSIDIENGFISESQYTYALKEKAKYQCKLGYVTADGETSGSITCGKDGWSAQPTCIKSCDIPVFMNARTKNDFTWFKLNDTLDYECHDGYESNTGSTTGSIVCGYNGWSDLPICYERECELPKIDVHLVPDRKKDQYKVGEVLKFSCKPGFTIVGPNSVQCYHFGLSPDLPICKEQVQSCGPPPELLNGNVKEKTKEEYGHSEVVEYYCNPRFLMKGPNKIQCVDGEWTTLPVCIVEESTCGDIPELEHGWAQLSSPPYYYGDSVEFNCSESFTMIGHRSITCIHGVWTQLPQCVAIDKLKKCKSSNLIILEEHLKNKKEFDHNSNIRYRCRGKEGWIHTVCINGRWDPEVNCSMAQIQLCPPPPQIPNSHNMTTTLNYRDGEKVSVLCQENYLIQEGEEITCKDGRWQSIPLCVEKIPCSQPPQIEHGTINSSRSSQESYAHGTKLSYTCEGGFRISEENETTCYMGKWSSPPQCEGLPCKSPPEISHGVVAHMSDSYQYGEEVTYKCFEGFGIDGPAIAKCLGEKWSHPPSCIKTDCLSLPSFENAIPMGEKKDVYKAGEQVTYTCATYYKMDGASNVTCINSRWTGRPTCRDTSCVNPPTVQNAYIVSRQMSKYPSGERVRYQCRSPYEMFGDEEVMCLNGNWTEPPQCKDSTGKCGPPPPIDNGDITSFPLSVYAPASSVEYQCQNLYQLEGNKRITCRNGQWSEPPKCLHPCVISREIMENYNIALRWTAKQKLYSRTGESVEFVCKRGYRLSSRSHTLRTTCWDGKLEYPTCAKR
The assay is described as follows: ELISA, immobilized recombinant protein, FH in solution. A general note: An ELISA detects its analyte on a solid surface through an enzyme-linked reagent.
Consider B1, for which the binding result is listed as “no binding (tested: 10 µg mL^-1 human FH)”. Consider B2, for which the binding result is recorded as “no binding (tested: 10 µg mL^-1 human FH)”.

Regarding B3, the binding result is listed as “no binding (tested: 10 µg mL^-1 human FH)”. As for B4, the binding result is listed as “no binding (tested: 10 µg mL^-1 human FH)”. Still for that read-out and setting: in the case of B5 it was “no binding (tested: 10 µg mL^-1 human FH)”.

The target in the next assay is T1, human Factor H. In words: ELISA, immobilized recombinant protein, human FH 10 ug/mL.
In the case of B6, the binding result is given as “binds”. B7: the binding result is on record as “binds”.
